Numbering of substitutions follows the chain as printed. Names may count otherwise.

The target in assay [1] is T1, EGFR on A431 epidermoid carcinoma cells (human, UniProt P00533 25-1210). The experiment in a line: cell-based or functional assay.
Assay [2] addresses T2, human monomeric EGFR (EGFR.mmh) (human, UniProt P00533 25-647).
T2 construct: Soluble monomeric EGFR construct
In words: SPR 37C, mAb captured by anti-human Fc, EGFR.mmh analyte. As for the experimental part: (§1) Different concentrations of human monomeric (EGFR.mmh; SEQ ID NO:386) and dimeric (EGFR.mFc; SEQ ID NO:387) proteins were injected over the anti-EGFR monoclonal antibody captured surface at a flow rate of 50 μI/min. Antibody-antigen association was monitored for 4-5 minutes while dissociation of antigen from the captured monoclonal antibody surface was monitored for 10 min. Kinetic association (kₐ) and dissociation (kd) rate constants were determined by processing and fitting the data to a 1:1 binding model using Scrubber 2.0 curve fitting software.

In assay [3] the target is T1, EGFR on A431 epidermoid carcinoma cells. The experiment in a line: cell-based or functional assay. This is another data set of the same source.
Assay [4] deals with T3, human dimeric EGFR (EGFR.mFc) (human).
T3 construct: Soluble dimeric EGFR construct
The experiment in a line: SPR 37C, mAb captured by anti-human Fc, EGFR.mFc analyte. As for the experimental part: as §1

B1: H1H151P (antibody, human IgG1, V domains shown)
VH: QVQLQESGPGLVNPSQTLSLTCTVSGGSINSGDYYWSWVRQHPGKGLEWIGYIYYSGSTYYNPSLKSRVTISVDTSKNQFSLKLSSVTVADTAVYYCARVGYSKGYFDSWGQGTLVTVSS
VL: DIQMTQSPSTLSASVGDRVTITCRASESISSWLAWYQQKPGKAPKVLIYDASSLESGVPSRFSGSGSGTEYTLTISSLQPDDFASYYCQQYKSYWTFGQGTKVEIK
notes: Human IgG1 Fc (H1H)
A word on the Kd: it is a measure of binding affinity in units of concentration. The low end stands for higher affinity, the high end for lower affinity. Usually koff stands for a measure of how fast the partners let go of each other. For orientation: kon means the rate constant with which the complex forms. Lower therefore signals slower complex formation. Consider B1, for which the “IC50 of A431 Proliferation” value in assay [1] amounted to 2.77e-10 Molar. In assay [2], this molecule yielded an equilibrium dissociation constant (Kd) of 8.4 nM, a koff of 0.00113 s⁻¹, a kon of 134000 M⁻¹ s⁻¹ and a t1/2 of 0.167 h. Besides, in assay [3], the “ADCC EC50” value was found to be 5.48e-09 Molar and the “Maximum Cell Killing (%)” value turned out to be 68%.

B2: H1H155P (antibody, human IgG1, V domains shown)
VH: QVQLVESGGGVVQPGRSLRLSCAASGFTFSIYGMHWVRQAPGKGLEWVTVISDDGSKKYYVDSVKGRFTLSRDNSKNTLYLQMNSLRAEDTAVYYCARDRITGTNWYGMDVWGQGTTVTVSS
VL: DIQMTQSPSSLSASVGDRVTITCRASQDISNYLAWFQQKPGKAPKSLIFAASSLQSGGPSKFSGSGSGTDFTLTISSLQPEDFATYYCQQYNRYPFTFGPGTKVDIK
notes: Human IgG1 Fc (H1H)
In assay [2], B2 gave a Kd of 0.962 nM, a koff of 0.000169 s⁻¹, a kon of 176000 M⁻¹ s⁻¹ and a t1/2 of 1.13 h. For the same molecule, in assay [3], the “ADCC EC50” value was 1.67e-11 Molar and the “Maximum Cell Killing (%)” value stood at 30%. In assay [4], binding was characterised by a dissociation constant (Kd) of 0.321 nM, the koff was 0.000106 s⁻¹, the kon was determined as 329000 M⁻¹ s⁻¹ and the t1/2 turned out to be 1.82 h.

B3: H1H159P (antibody, human IgG1, V domains shown)
VH: EVQLVESGGGLVQPGGSLRLSCAASRFTFTNYWMSWVRQAPGKGLEWVAKIKQDGSEKYYLDSVKDRFTISRDNAKNSLYLQMNSLRAEDTAVYYCASSSSWYDYYYGMDVWGHGTTVTVSS
VL: EIVLTQSPDFQSVTPKEKVTITCRASQSIGTNLHWYQQRPDQSPKLLIKFASQSFSGVPSRFSGSGSGTDFTLTINSLEAEDAATYYCHQTNFLPHTFGGGTKVEIKR
notes: Human IgG1 Fc (H1H)
For B3, in assay [2], the Kd is 0.682 nM, the koff was 0.000325 s⁻¹, the kon was 476000 M⁻¹ s⁻¹ and the t1/2 is 0.6 h. For the same molecule, in assay [3], the “ADCC EC50” value was found to be 2.69e-09 Molar and the “Maximum Cell Killing (%)” value is 60%. Besides, in assay [4], binding was put at a Kd of 0.00344 nM, the koff was determined as 5.63e-06 s⁻¹, the on-rate constant (kon) worked out at 1.64e+06 M⁻¹ s⁻¹ and the t1/2 is 34.2 h.

B4: H1H169P (antibody, human IgG1, V domains shown)
VH: B3 VH with T30S, N31T, S100I, S101T
VL: EIVLTQSPDFQSVTPKEKVTITCRASQSIGSNLHWYQQKPDQSPNLLIKFASQSFSGVPSRFSGSGSGTDFTLTINSLEAEDAATYYCHQTNFLPHTFGGGTKVEIK
notes: Human IgG1 Fc (H1H)
In assay [2], B4 returned a Kd of 1.31 nM, a koff of 0.000869 s⁻¹, a kon of 665000 M⁻¹ s⁻¹ and a t1/2 of 0.217 h. Also, in assay [3], the “ADCC EC50” value was 4.81e-09 Molar and the “Maximum Cell Killing (%)” value came out at 27%. In assay [4], this molecule displayed a dissociation constant (Kd) of 0.00736 nM, a koff of 1.69e-05 s⁻¹, a kon of 2.29e+06 M⁻¹ s⁻¹ and a t1/2 of 11.4 h.

B5: H1H145P (antibody, human IgG1, V domains shown)
VH: EVQLVESGGGVVQPGGSLRLSCAASGFTFDDYAMHWVRQAPGKGLEWVSLISGDGGSTYYADSVKGRFTISRDNSKNSLYLQMNSLRTEDTALYYCAKNYDSSGYYYPYYYYYGMDVWGQGTTVTVSS
VL: not shown
notes: Human IgG1 Fc (H1H)
Consider B5, for which, in assay [2], the Kd stood at 1.43 nM, the koff was 0.000195 s⁻¹, the kon amounted to 137000 M⁻¹ s⁻¹ and the t1/2 was determined as 0.983 h. In assay [3], the “Maximum Cell Killing (%)” value worked out at 0%. For the same molecule, in assay [4], the Kd amounted to 0.232 nM, the koff turned out to be 5.86e-05 s⁻¹, the kon was 252000 M⁻¹ s⁻¹ and the t1/2 was 3.28 h.

B6: H1H157P (antibody, human IgG1, V domains shown)
VH: QVQLVESGGGVVQPGRSLRLTCKASGFTFSIYGINWVRQASGKGLDWVAVISDDGSDKKYADSVKGRFTISRDNSKNTVYLEMSRLRSEDTAVYFCAKDRFTGNHYYGMDVWGQGTTVTVSS
VL: DIQMTQSPSSLSASVGDRVSITCRASQDISDYLAWFQQKPGKAPKSLIYAASILQNGVPSRFSGSGSGTDFTLTISSLQPEDFALYYCHQYNRFPWTFGQGTKVEIK
notes: Human IgG1 Fc (H1H)
B6: in assay [2], the binding result is on record as “no binding”. Further, in assay [3], the “ADCC EC50” value amounted to 2.27e-13 Molar and the “Maximum Cell Killing (%)” value came out at 36%. Also, the binding result in assay [4] was “no binding”.

B7: H1H158P (antibody, human IgG1, V domains shown)
VH: QVQLVESGGGVVQPGGSLRLSCAASGFTFSIYGIHWVRQAPGKGLEWVAVISDDGSNKKYADSVKGRFTISRDNSKNTLYLQMNSLRAEDTAIFYCAKDRITGTHYYGMDVWGQGTTVTVSS
VL: B6 VL with D31N, I53S, N56S, R61K, T69I, D70E, A84S, L85T
notes: Human IgG1 Fc (H1H)
As for B7, in assay [2], the affinity, expressed as Kd, was 5.9 nM; the koff turned out to be 0.000773 s⁻¹; the kon turned out to be 131000 M⁻¹ s⁻¹; the t1/2 is 0.25 h. For the same molecule, in assay [3], the “ADCC EC50” value stood at 2.32e-12 Molar and the “Maximum Cell Killing (%)” value amounted to 28%. Further, in assay [4], the affinity, expressed as Kd, was 0.0241 nM; the koff turned out to be 9.84e-06 s⁻¹; the kon came out at 408000 M⁻¹ s⁻¹; the t1/2 turned out to be 19.6 h.

B8: H1H153P (antibody, human IgG1, V domains shown)
VH: QVQLVESGGGVVQPGKSLRLSCAASGFTFSIYGMNWVRQAPGKGLDWVAVISDDGSNKDYVDSVRGRFTISRDNSKNTLYLQMNSLSAEDTAVYYCAKDRITGTHYYGLDVWGQGTTVTVSS
VL: DIQMTQSPSSLSASVGDRITITCRASQDIANYLAWFQQKPGNAPTSLIYAASILQSGVPSKFSGSGSGTDFTLTITSLQPEDFASYYCQQYNRKPWTFGRGTKVEIK
notes: Human IgG1 Fc (H1H)
As for B8, in assay [2], the Kd worked out at 3.09 nM, the koff stood at 0.000235 s⁻¹, the kon is 76100 M⁻¹ s⁻¹ and the t1/2 came out at 0.817 h. In addition, in assay [3], the “ADCC EC50” value amounted to 2.65e-11 Molar and the “Maximum Cell Killing (%)” value stood at 31%. In assay [4], this molecule displayed a Kd of 0.0351 nM, a koff of 8.23e-06 s⁻¹, a kon of 234000 M⁻¹ s⁻¹ and a t1/2 of 23.4 h.

B9: H1H171P (antibody, human IgG1, V domains shown)
VH: B8 VH with K16R, A40G, L109M
VL: B8 VL
notes: Human IgG1 Fc (H1H)
In the case of B9, in assay [2], the affinity, expressed as Kd, was 14.2 nM; the koff stood at 0.00113 s⁻¹; the kon stood at 79400 M⁻¹ s⁻¹; the t1/2 came to 0.167 h. Further, in assay [3], the “ADCC EC50” value came to 8.94e-13 Molar and the “Maximum Cell Killing (%)” value is 27%. In assay [4], this molecule had a Kd of 0.103 nM, an off-rate (koff) of 3.48e-05 s⁻¹, a kon of 339000 M⁻¹ s⁻¹ and a t1/2 of 5.53 h.

B10: H1H136P (antibody, human IgG1, V domains shown)
VH: EVQLVESGGGLVQPGGSLRLSCAASGFTFSSYDMSWVRQAPGKGLEWVSGISGSGDSTYYAGSVKGRFTISRDNSKNTLYLQMNSLRAEDTAVYYCAYDYSNYWDHYGMDVWGQGTTVTVSS
VL: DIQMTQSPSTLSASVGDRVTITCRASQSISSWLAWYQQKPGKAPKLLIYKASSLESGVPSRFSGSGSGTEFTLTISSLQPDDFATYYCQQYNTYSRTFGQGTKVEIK
notes: Human IgG1 Fc (H1H)
With B10, the binding result in assay [2] is “no binding”. Moreover, in assay [3], the “ADCC EC50” value is 1.49e-09 Molar and the “Maximum Cell Killing (%)” value is 27%. Besides, the binding result in assay [4] is on record as “no binding”.

B11: H1H0085N (antibody, V domains shown)
VH: EVQLVESGGGLVQPGRSLRLSCAASGFTFDDYAMHWVRQAPGKGLEWVSGINWNSDKIAYADSVKGRFTISRDNAENSLFLQMNSLRPEDTALYYCVKRGDFWTEYYDYWGQGTLVTVSS
VL: DIVMTQSPLSLPVTPGEPASISCRSSQSLLHSNGYNYLDWYLQKPGQSPHLLIYLVSTRASGVPDRFSGSGSGTDFTLKISRVEAEDVGVYYCIQALQTPWTFGQGTKVEIK
notes: Tested in human IgG1 Fc format (H1H prefix); first obtained as H1M (mouse IgG1 Fc) from a hybridoma; also called H1M085N; H1H085N
As to B11, the “IC50 of A431 Proliferation” value in assay [1] came to 1.65e-09 Molar. In assay [2], this molecule showed a Kd of 15.5 nM, a koff of 0.00185 s⁻¹, a kon of 119000 M⁻¹ s⁻¹ and a t1/2 of 0.1 h. Further, in assay [3], the “ADCC EC50” value came to 3.7e-13 Molar and the “Maximum Cell Killing (%)” value amounted to 35%. Further, in assay [4], binding was put at a Kd of 0.12 nM, the koff came to 4.05e-05 s⁻¹, the kon came to 336000 M⁻¹ s⁻¹ and the t1/2 came to 4.77 h.

B12: H1H161P (antibody, human IgG1, V domains shown)
VH: QVQLVESGGGVVQPGRSLRLSCAASGFTFSNYGMYWVRQAPGKGLEWVTFISYDGSNKNYVDSMKGRFTISRDNSKNTLYLQMNSLRVEDTAVYYCAKDRISGTPWYGMDVWGQGTTVTVSS
VL: DIQMTQSPSSLSASVGDRVTITCRASQDIADYLAWFQQKPGKAPKSLIFAASSLESWVPLKFSGSGSGTDFTLTISSLQPEDFATYYCQQYSRFPITFGQGTKVEIK
notes: Human IgG1 Fc (H1H)
In the case of B12, in assay [2], the Kd was 0.655 nM, the dissociation rate constant (koff) worked out at 0.000321 s⁻¹, the kon was 489000 M⁻¹ s⁻¹ and the t1/2 was 0.6 h. Moreover, in assay [3], the “ADCC EC50” value is 9.8e-12 Molar and the “Maximum Cell Killing (%)” value was found to be 38%. In assay [4], this molecule showed a Kd of 0.00159 nM, a koff of 2.76e-06 s⁻¹, a kon of 1.73e+06 M⁻¹ s⁻¹ and a t1/2 of 69.8 h.

B13: H1H163P (antibody, human IgG1, V domains shown)
VH: B12 VH with Y35H, F50L, S52E, Y53H, M64V, S102T
VL: B12 VL with S92N, K103R, V104L
notes: Human IgG1 Fc (H1H)
Take B13: in assay [2], the Kd was found to be 0.834 nM, the koff amounted to 0.000426 s⁻¹, the kon came to 511000 M⁻¹ s⁻¹ and the t1/2 was 0.45 h. Further, in assay [3], the “ADCC EC50” value amounted to 2.96e-10 Molar and the “Maximum Cell Killing (%)” value was found to be 48%. Besides, in assay [4], the Kd is 0.00117 nM, the koff came out at 2.12e-06 s⁻¹, the kon is 1.81e+06 M⁻¹ s⁻¹ and the t1/2 worked out at 90.8 h.
